Measurements published in the supplement of paper PMC7877785.
± gives the uncertainty stated by the source.

Assay: self-splicing fitness, log relative to wild type (ln ratio); higher = more splicing; Tetrahymena group I intron in knt gene, E. coli kanamycin selection, DiMSum; sequences stand for … in CUCUCU…GGAGGGAAAAGUUAUCAGGCAUGCACCUGGUAGCUAGUCUUUAAACCAAUAGAUUGCAUCGGUUUAAAAGGCAAGACCGUCAAAUUGCGGGAAAGGGGUCAACAGCCGUUCAGUACCAAGUCUCAGGGGAAACUUUGAGAUGGCCUUGCAAAGGGUAUGGUAAUAAGCUGACGGACAUGGUCCUAACCACGCAGCCAAGUCCUAAGUCAACAGAUCUUCUGUUGAUAUGGAUGCAGUUCACAGACUAAAUGUCGGUCGGGGAAGAUGUAUUCUUCUCAUAAGAUAUAGUCGGACCUCUCCUUAAUGGGAGCUAGCGGAUGAAGUGAUGCAACACUGGAGCCGCUGGGAACUAAUUUGUAUGCGAAAGUAUAUUGAUUAGUUUUGGAGUACUCGUGGUCG
In short: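 Colonies from six replicate transformations of E. coli BL21(DE3) were pooled and amplicon-sequenced on an Illumina HiSeq 2500. The library placed an intron with all eight P1ex-region nucleotides randomised inside the knt kanamycin-resistance gene on pET-22b(+), and cells grew overnight at 37°C or 30°C on LB agar with or without 25 μg/mL kanamycin (plus 100 μg/mL carbenicillin, 50 μM IPTG, 0.2% rhamnose). Fitness is the DiMSum error-weighted combination of wild-type-normalised replicate fold changes, kanamycin versus none.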

Sequence	self-splicing fitness (ln) (30 °C)	self-splicing fitness (ln) (37 °C)
AGAUAGCAAUAUUACGAUUC	-1.7 ± 0.12	-0.442 ± 0.16
AGAUAGCAAUAUUACGCAAA	-2.81 ± 0.23	-1.75 ± 0.24
AGAUAGCAAUAUUACGCAUC	-1.84 ± 0.3	-1.91 ± 0.36
AGAUAGCAAUAUUACGCCCA	-1.03 ± 0.21	-0.502 ± 0.23
AGAUAGCAAUAUUACGCCUU	-0.881 ± 0.09	-0.255 ± 0.11
AGAUAGCAAUAUUACGCGCG	0.343 ± 0.18	-0.618 ± 0.2
AGAUAGCAAUAUUACGCGGU	-2.93 ± 0.17	-2.28 ± 0.15
AGAUAGCAAUAUUACGGAAU	-2.07 ± 0.15	-0.731 ± 0.14
AGAUAGCAAUAUUACGGAUC	-1.92 ± 0.21	-0.641 ± 0.2
AGAUAGCAAUAUUACGGCCU	-0.604 ± 0.11	0.606 ± 0.14
AGAUAGCAAUAUUACGGCGC	-1.32 ± 0.14	-0.0937 ± 0.15
AGAUAGCAAUAUUACGUAUA	-1.91 ± 0.19	-2.27 ± 0.28
AGAUAGCAAUAUUACGUCUA	-0.934 ± 0.24	-0.474 ± 0.2
AGAUAGCAAUAUUACGUGCA	-0.725 ± 0.13	-0.616 ± 0.15
AGAUAGCAAUAUUACGUGCC	-0.685 ± 0.2	-0.528 ± 0.22
AGAUAGCAAUAUUACGUGUU	-2.97 ± 0.13	-1.1 ± 0.11
AGCAAGCAAUAUUACGAAGA	-3.3 ± 0.31	-1.74 ± 0.15
AGCAAGCAAUAUUACGAAUU	-2.55 ± 0.08	-1.68 ± 0.09
AGCAAGCAAUAUUACGACGC	-1.09 ± 0.11	0.048 ± 0.12
AGCAAGCAAUAUUACGACGU	-0.267 ± 0.075	0.91 ± 0.093
AGCAAGCAAUAUUACGAGAC	-4.19 ± 0.36	-2.81 ± 0.21
AGCAAGCAAUAUUACGAGCA	-0.456 ± 0.14	-0.101 ± 0.14
AGCAAGCAAUAUUACGAGCU	-3.42 ± 0.17	-2.15 ± 0.21
AGCAAGCAAUAUUACGAGUG	-1.15 ± 0.051	-0.683 ± 0.06
AGCAAGCAAUAUUACGAUUA	-1.56 ± 0.093	-0.818 ± 0.081
AGCAAGCAAUAUUACGCAAG	-2.4 ± 0.2	-2.11 ± 0.26

Sequence	self-splicing fitness (ln) (30 °C)	self-splicing fitness (ln) (37 °C)
AGCAAGCAAUAUUACGCAUC	-2.72 ± 0.093	-3.73 ± 0.24
AGCAAGCAAUAUUACGCCCU	-2.12 ± 0.26	-0.679 ± 0.36
AGCAAGCAAUAUUACGCCUG	-3.23 ± 0.27	-2.54 ± 0.42
AGCAAGCAAUAUUACGCGAG	-3.61 ± 0.16	-2.87 ± 0.19
AGCAAGCAAUAUUACGCGCC	-3.19 ± 0.34	-2.46 ± 0.32
AGCAAGCAAUAUUACGCGGG	-3.87 ± 0.21	-3.71 ± 0.26
AGCAAGCAAUAUUACGCUAG	-4.08 ± 0.25	-2.1 ± 0.22
AGCAAGCAAUAUUACGCUGA	-2.22 ± 0.14	-2.07 ± 0.17
AGCAAGCAAUAUUACGCUGU	-2.69 ± 0.12	-0.265 ± 0.12
AGCAAGCAAUAUUACGCUUU	-2.23 ± 0.17	-1.55 ± 0.12
AGCAAGCAAUAUUACGGAAG	-3.35 ± 0.25	-2.32 ± 0.26
AGCAAGCAAUAUUACGGAGU	-2.98 ± 0.13	-1.6 ± 0.12
AGCAAGCAAUAUUACGGCAU	-0.0513 ± 0.084	-0.204 ± 0.092
AGCAAGCAAUAUUACGGGGG	-3.78 ± 0.15	-2.45 ± 0.19
AGCAAGCAAUAUUACGGUCG	-0.327 ± 0.1	0.74 ± 0.13
AGCAAGCAAUAUUACGGUGA	-1.88 ± 0.11	-0.835 ± 0.093
AGCAAGCAAUAUUACGGUUC	-3.75 ± 0.17	-3.42 ± 0.25
AGCAAGCAAUAUUACGGUUU	-1.28 ± 0.051	-0.398 ± 0.066
AGCAAGCAAUAUUACGUAAG	-2.47 ± 0.097	-0.897 ± 0.12
AGCAAGCAAUAUUACGUCAC	-2.89 ± 0.16	-1.88 ± 0.18
AGCAAGCAAUAUUACGUCGG	-2.93 ± 0.19	-1.59 ± 0.19
AGCAAGCAAUAUUACGUCGU	-1.72 ± 0.12	-0.897 ± 0.16
AGCAAGCAAUAUUACGUUGA	-2.95 ± 0.12	-1.37 ± 0.1
AGCCAGCAAUAUUACGAAAA	–	-1.63 ± 0.24
AGCCAGCAAUAUUACGAACC	-0.758 ± 0.12	-0.0185 ± 0.11
AGCCAGCAAUAUUACGACAC	-2.83 ± 0.28	-1.55 ± 0.27

Sequence	self-splicing fitness (ln) (30 °C)	self-splicing fitness (ln) (37 °C)
AGCCAGCAAUAUUACGACCU	0.00818 ± 0.069	0.00767 ± 0.083
AGCCAGCAAUAUUACGACUG	-2.72 ± 0.091	-1.14 ± 0.095
AGCCAGCAAUAUUACGAUAG	-4.04 ± 0.28	-2.35 ± 0.24
AGCCAGCAAUAUUACGCCGU	-2.54 ± 0.12	-1.76 ± 0.13
AGCCAGCAAUAUUACGCGGA	-3.48 ± 0.19	-2.23 ± 0.12
AGCCAGCAAUAUUACGCGGC	-3.54 ± 0.25	-3.42 ± 0.31
AGCCAGCAAUAUUACGCGUU	-2.17 ± 0.12	-0.95 ± 0.12
AGCCAGCAAUAUUACGCUCC	-2.35 ± 0.16	-2.51 ± 0.21
AGCCAGCAAUAUUACGCUGG	-4.12 ± 0.26	-2.32 ± 0.26
AGCCAGCAAUAUUACGGACG	0.121 ± 0.072	0.405 ± 0.094
AGCCAGCAAUAUUACGGAUA	-1.63 ± 0.11	-1.51 ± 0.12
AGCCAGCAAUAUUACGGCAU	-1.31 ± 0.099	-1.15 ± 0.12
AGCCAGCAAUAUUACGGGCU	-4.03 ± 0.25	-2.5 ± 0.21
AGCCAGCAAUAUUACGGUGU	-1.99 ± 0.084	-2.51 ± 0.12
AGCCAGCAAUAUUACGUAGC	-3.01 ± 0.14	-2.05 ± 0.15
AGCCAGCAAUAUUACGUCAC	–	-2.15 ± 0.44
AGCCAGCAAUAUUACGUGCU	-3.62 ± 0.18	-2.06 ± 0.21
AGCCAGCAAUAUUACGUUUA	-2.7 ± 0.35	-2.48 ± 0.38
AGCGAGCAAUAUUACGAAGG	-4.58 ± 0.26	-2.09 ± 0.15
AGCGAGCAAUAUUACGAGUA	-1.68 ± 0.26	-1.18 ± 0.29
AGCGAGCAAUAUUACGCAGA	-2.67 ± 0.24	-2.88 ± 0.24
AGCGAGCAAUAUUACGCGAC	-2.33 ± 0.27	–
AGCGAGCAAUAUUACGCGAU	-1.78 ± 0.25	-2.2 ± 0.36
AGCGAGCAAUAUUACGCGGU	–	-2.53 ± 0.32
